Substrate: Nc1ncnc2c1ncn2[C@@H]1O[C@H](COP(=O)(O)NCCc2c[nH]c3ccccc23)[C@@H](O)[C@H]1O
Assay: HINT1 enzyme activity assay (TrpA hydrolysis, fluorescence)
Type: biochemical, human
Settings: other: substrate of hHint1
Excerpt: While the biologically relevant substrates of HINT1 have not been clearly elucidated, the protein has been implicated in opioid receptor signaling, − regulation of the melanoma-associated transcription factor MITF, , and DNA damage repair. These functions position HINT1 as a potential pharmacological target for treating conditions such as opioid resistance or melanoma. The only reported HINT1-targeting pharmacophores are nucleoside-based nonhydrolyzable substrate analogs, such as the carbamate TrpGC (Figure a). , We evaluated the inhibitory potential of KV-24 and KV-30 in enzyme activity assays using recombinant HINT1. […]
Mouse brain proteomics – LC-MS/MS. […] 10 µg of peptide mix was injected and analyzed using a 58 min gradient starting at 1% B up to 45% B (1 h method). […]
Mouse proteomics data analysis. The data files were analyzed with DIA-NN 1.8.1. […] The resulting protein group tables were further analyzed by Perseus 1.6.2.2. […]
CME of transferrin and confocal microscopy analyses.For transferrin uptake experiments HeLa cells were seeded on Matrigel-coated coverslips, and incubated with 0.1 % DMSO, or with 100 µM dynasore, 20 µM KV50, 2 µM KV65, or 2 µM KV79 in media containing 10% FCS at 37°C for 20 h. […] All inhibitor treatments were performed in duplicate, to enable quantification of surface levels of transferrin receptors, and to assess the capability of transferrin receptor endocytosis. […]

B1: recombinant HINT1 (hHint1) (Homo sapiens) (protein)
chain: MADEIAKAQVARPGGDTIFGKIIRKEIPAKIIFEDDRCLAFHDISPQAPTHFLVIPKKHISQISVAEDDDESLLGHLMIVGKKCAADLGLNKGYRMVVNEGSDGGQSVYHVHLHVLGGRQMHWPPG
Km: 0.139 µM

Source: publication PMC12186257, “Serendipitous and Systematic Chemoproteomic Discovery of MBLAC2, HINT1, and NME1‑4 Inhibitors from Histone Deacetylase-Targeting Pharmacophores” (ACS Chemical Biology, 2025)
